Reference: article PMC8377490

Test system: C[C@@H]1O[C@@H](O[C@H]2[C@H](O)[C@@H](O)C(O)O[C@@H]2C(=O)O)[C@H](O)[C@H](O)[C@H]1O
Test: purified protein
Conditions: 50 mM Hepes-NaOH pH 7.0, 30 °C, 20 nM enzyme

## FoRham1 (GA-specific L-rhamnose-α-1,4-D-glucuronate lyase) (Fusarium oxysporum)
  Km: 2800 ± 200 µM
  kcat: 95.5 s⁻¹
  kcat/Km: 34100 M⁻¹ s⁻¹
